Reference: paper PMC12612064

Molecular target: Pre-cleaved FUS (tag-free Fused in sarcoma) (UniProt P35637)
Assay: fluorescence correlation spectroscopy

UniProt P35637, sequence (P35637 whole entry, the tested form may be a part): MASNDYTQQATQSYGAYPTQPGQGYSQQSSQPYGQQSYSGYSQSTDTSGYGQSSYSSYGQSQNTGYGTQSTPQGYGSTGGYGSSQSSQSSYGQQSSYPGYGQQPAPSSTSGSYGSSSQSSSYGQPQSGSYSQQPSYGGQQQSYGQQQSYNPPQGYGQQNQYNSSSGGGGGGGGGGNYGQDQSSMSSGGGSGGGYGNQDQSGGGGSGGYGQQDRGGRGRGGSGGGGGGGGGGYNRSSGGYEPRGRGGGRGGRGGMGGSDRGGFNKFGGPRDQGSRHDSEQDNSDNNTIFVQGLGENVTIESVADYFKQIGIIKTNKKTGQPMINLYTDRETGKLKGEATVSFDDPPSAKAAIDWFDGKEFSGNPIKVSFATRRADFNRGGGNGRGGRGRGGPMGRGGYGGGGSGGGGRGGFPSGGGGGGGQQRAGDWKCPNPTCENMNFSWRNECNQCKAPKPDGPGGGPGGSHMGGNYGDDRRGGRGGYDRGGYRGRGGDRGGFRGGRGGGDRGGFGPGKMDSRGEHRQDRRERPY

For “Cy3-labeled pre-cleaved FUS (from UniProt P35637 1-526) (natural protein)”, the second critical concentration (condensate formation) was 1 µM.
